The assay deals with tetanus toxoid (UniProt P04958 2-1315). The experiment in a line: ELISA. For orientation: In an ELISA, binding on a coated surface is turned into a signal by an enzyme label.

The source of these data is patent US20030170230A1 (published 2003).

B1: Sample C: protein from vectors pG31020, pG31030 and pG31027, consisting of FvL-AHECa, FvH-AHECb and ubiquitin-AHECc with a disulfide bridge between AHECa and … (other)
VL: MDIVMTQSQKFMSTSVGDRVSVTCKASQNVGASVAWYQQKPGQSPKILIYSASYRYSGVPDRFTGSGSGTDFTLTISNVQSEDLAEYFCQQYNGYPLTFGAGTKLELRTSDSLRLQQLFRDCEDEETWIREKEPIAASTAMDIGINSDPNSSSVDKLAAALEHHHHHH
VH: MGSGIEGRMASEVQLQQSGPELVKPGASVKMSCKASGYTFTNYIMYWVTQRPGQGLEWIGYIHPYNDDTKYNEKFKDKATLTSDRSSRTAYMELSSLTSEDSAVYYCARKKANFGYGPWFAYWGQGTLVTVSARTKHQALQAEIAGHEPRIKACTQKGNAMVEESLEHHHHHH
chain: not shown
Molecule B1 displayed a Ka of 4.3e+08 M⁻¹.
